± gives the standard deviation of the averaged measurements.

The subject of this series is Saccharomyces cerevisiae. The series can be described thus: protein stability index of tFT-peptide fusion (C-terminal peptide) (PSI (0-1 scale)); higher = more stable (slower turnover). The following applies: temperature: 30 C. The method, then:
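MPS profiling in S. cerevisiae of the yeast C-terminome library: the last 12 aa of each annotated ORF are fused to the C-terminus of a sfGFP-mCherry timer, after a GGGS linker. Cells are FACS-sorted into 8 mCherry/sfGFP bins and deep-sequenced. PSI runs from 0 (unstable) to 1 (stable); wild type and das1Δ backgrounds, two technical replicates each.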

[1] abbreviates: genetic background: das1 deletion.

In the case of SSKGFFSKLGCC [YCK2 C-terminal 12 aa], the protein stability index under setting [1] was 0.692 ± 0.0099 and the protein stability index (genetic background: wild type) stood at 0.677 ± 0.011.
For SSSNKSQRNGRY [AIR1 C-terminal 12 aa], in that order: 0.712 ± 0.011 and 0.68967 ± 0.00054.
The matching figures for SSSSTSVNKTLD [VIP1 C-terminal 12 aa]: 0.734 ± 0.04 and 0.707 ± 0.053.
The matching figures for SSTTEETILVRK [RKM1 C-terminal 12 aa]: 0.689 ± 0.023 and 0.7025 ± 0.0051.
STCIYLYTHNSM [YBR206W C-terminal 12 aa]: the protein stability index reads like this: under setting [1], 0.672 ± 0.027; (genetic background: wild type) 0.673 ± 0.023.
In turn, STHIDHDKFSFF [CDC8 C-terminal 12 aa] displayed a protein stability index under setting [1] of 0.7087 ± 0.0024 and a protein stability index (genetic background: wild type) of 0.694 ± 0.021.
For STQHKSTTSFTQ [TGL4 C-terminal 12 aa], in that order: 0.716 ± 0.035 and 0.655 ± 0.022.
On to STTTVIQGEINK [LRG1 C-terminal 12 aa], for which the protein stability index runs as follows: under setting [1], 0.671 ± 0.049; (genetic background: wild type) 0.713 ± 0.036.
With SVESLMTQQDVE [BIO4 C-terminal 12 aa], the protein stability index reads like this: under setting [1], 0.691 ± 0.011; (genetic background: wild type) 0.6941 ± 0.0037.
For SVLKRVRKLFGE [VMA7 C-terminal 12 aa], in that order: 0.712 ± 0.004 and 0.684 ± 0.02.
Consider SWETKLKQNILE [CSN9 C-terminal 12 aa], for which the protein stability index runs as follows: under setting [1], 0.7156 ± 0.0054; (genetic background: wild type) 0.6441 ± 0.0042.
For SWISNNTNVPKK [ARF3 C-terminal 12 aa], in that order: 0.6958 ± 0.0013 and 0.678 ± 0.011.
The matching figures for SYFNTIMHNCKP [SET4 C-terminal 12 aa]: 0.72482 ± 0.00043 and 0.715 ± 0.0071.
For TAFLNKVYKRSK [ERG20 C-terminal 12 aa], in that order: 0.692 ± 0.007 and 0.693 ± 0.043.
For the sequence TANKVELMANIV [MAK31 C-terminal 12 aa], the protein stability index under setting [1] amounted to 0.6683 ± 0.0035 and the protein stability index (genetic background: wild type) amounted to 0.686 ± 0.041.
For the sequence TASFAGSKKTFD [NSR1 C-terminal 12 aa], the protein stability index turned out to be 0.706 ± 0.023 under setting [1] and 0.678 ± 0.012 (genetic background: wild type).
For TDDKEKLLKTLK [ACC1 C-terminal 12 aa], in that order: 0.698 ± 0.016 and 0.734 ± 0.023.
For TDFENPNFRYTL [DAL5 C-terminal 12 aa], in that order: 0.756 ± 0.039 and 0.794 ± 0.12.
The matching figures for TDLPKWAQLDNS [PUS6 C-terminal 12 aa]: 0.729 ± 0.028 and 0.702 ± 0.026.
Regarding TFCVYENLKHRL [FLX1 C-terminal 12 aa], the protein stability index reads like this: under setting [1], 0.741 ± 0.019; (genetic background: wild type) 0.726 ± 0.017.
TGGCSSSKFSLS [SKN1 C-terminal 12 aa]: the protein stability index by setting is: under setting [1], 0.692 ± 0.021; (genetic background: wild type) 0.68965 ± 0.00013.
Regarding THFFSIEWAGFG [SEN34 C-terminal 12 aa], the protein stability index reads like this: under setting [1], 0.7116 ± 0.0045; (genetic background: wild type) 0.725 ± 0.041.
The matching figures for TIAAGKISEITQ [HBS1 C-terminal 12 aa]: 0.7292 ± 0.0066 and 0.697 ± 0.01.
For TIEEVKIPGLDI [MRPL50 C-terminal 12 aa], in that order: 0.701 ± 0.0088 and 0.711 ± 0.0074.
Consider TISNWIQETKEV [STO1 C-terminal 12 aa], for which the protein stability index reads like this: under setting [1], 0.70591 ± 0.00011; (genetic background: wild type) 0.7293 ± 0.0034.
As to TKARTLGEGSVN [YDR476C C-terminal 12 aa], the protein stability index runs as follows: under setting [1], 0.686 ± 0.032; (genetic background: wild type) 0.674 ± 0.021.
The matching figures for TKGEVATKPASY [MGA1 C-terminal 12 aa]: 0.702 ± 0.014 and 0.703 ± 0.018.
Take TKHTPKYLLNTI [YNL179C C-terminal 12 aa]: the protein stability index was determined as 0.6926 ± 0.0048 under setting [1] and 0.6621 ± 0.00097 (genetic background: wild type).
In the case of TKRLRKNKCIIM [RHO4 C-terminal 12 aa], the protein stability index was 0.743 ± 0.0024 under setting [1] and 0.702 ± 0.024 (genetic background: wild type).
For TKYKTVTVTAKT [YMR244W C-terminal 12 aa], in that order: 0.652 ± 0.014 and 0.71 ± 0.034.
The matching figures for TNGITTERHKKK [NTG2 C-terminal 12 aa]: 0.714 ± 0.0084 and 0.668 ± 0.028.
For TNTVPATSASSK [RGC1 C-terminal 12 aa], in that order: 0.68862 ± 0.00043 and 0.701 ± 0.04.
Consider TNWGQHKTVQNT [PPE1 C-terminal 12 aa], for which the protein stability index worked out at 0.698 ± 0.024 under setting [1] and 0.713 ± 0.019 (genetic background: wild type).
For TNYEVTDTYTNS [SOM1 C-terminal 12 aa], in that order: 0.7107 ± 0.0011 and 0.712 ± 0.017.
For TPRLYTDRSRDF [RPB2 C-terminal 12 aa], in that order: 0.743 ± 0.0033 and 0.713 ± 0.013.
With TPSEDDDGAVEI [LSM3 C-terminal 12 aa], the protein stability index is, setting by setting: under setting [1], 0.688 ± 0.0068; (genetic background: wild type) 0.749 ± 0.062.
As for TPTDSTPTKKDI [LAC1 C-terminal 12 aa], the protein stability index under setting [1] stood at 0.6941 ± 0.0027 and the protein stability index (genetic background: wild type) was 0.725 ± 0.019.
Turning to TRKKGGRRGRRL [RPS14A C-terminal 12 aa], the protein stability index reads like this: under setting [1], 0.711 ± 0.011; (genetic background: wild type) 0.676 ± 0.011.
In the case of TRMSSPPPSTSS [SET2 C-terminal 12 aa], the protein stability index reads like this: under setting [1], 0.695 ± 0.023; (genetic background: wild type) 0.6896 ± 0.0047.
Consider TSDQKNKRTQFS [RPB9 C-terminal 12 aa], for which the protein stability index under setting [1] stood at 0.6969 ± 0.0066 and the protein stability index (genetic background: wild type) amounted to 0.667 ± 0.07.
The matching figures for TVFETLTLHSAN [JSN1 C-terminal 12 aa]: 0.725 ± 0.024 and 0.68218 ± 0.00033.
On to TVGYGILKVMGF [PHO91 C-terminal 12 aa], for which the protein stability index came out at 0.659 ± 0.012 under setting [1] and 0.656 ± 0.009 (genetic background: wild type).
The matching figures for TVSLPSRYSRYN [ALR2 C-terminal 12 aa]: 0.6976 ± 0.0014 and 0.684 ± 0.033.
For “VAKKRLSSRSKP [YNL162W-A C-terminal 12 aa]”, in that order: 0.715 ± 0.05 and 0.658 ± 0.02.
The matching figures for VARYKMVSKRIW [EMP65 C-terminal 12 aa]: 0.717 ± 0.011 and 0.654 ± 0.018.
Regarding VDIPVDVKKLQI [BUL2 C-terminal 12 aa], the protein stability index runs as follows: under setting [1], 0.723 ± 0.035; (genetic background: wild type) 0.696 ± 0.018.
For VDMKWGSFPIFQ [YPR1 C-terminal 12 aa], in that order: 0.7256 ± 0.0028 and 0.7 ± 0.027.
The matching figures for “VDSEGQIRYAKE [YCR087C-A C-terminal 12 aa]”: 0.673 ± 0.028 and 0.6705 ± 0.0015.
With VEIPTVESTKSG [RNA14 C-terminal 12 aa], the protein stability index turned out to be 0.696 ± 0.021 under setting [1] and 0.7544 ± 0.0014 (genetic background: wild type).
For “VEPVYLCASLSL [YCR047W-A C-terminal 12 aa]”, in that order: 0.666 ± 0.027 and 0.6733 ± 0.00078.

For the origin of these results see the supplement of paper PMC10724198.
